In patent US20250018038A1 (UNIVERSITY OF CHICAGO, published 2025):

What was measured:
Bor-C = target: T1, Bor-C (Biotinylated Avi tag, held on neutravidin; not in the letters); assay: single point protein ELISA, 50 nM immobilised target
T1 construct: also called Bor C: 207-280; Borealin C-terminal domain; not shown: Avi tag, and any purification tag or linker
T1 chain: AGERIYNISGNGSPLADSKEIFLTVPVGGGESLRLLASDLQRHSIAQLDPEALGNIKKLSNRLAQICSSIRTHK
Experimental: (§1) To rapidly reconfirm the binding and specificity of the obtained Fabs after reformatting into the expression vectors single-point Fab ELISA was performed (FIG. 2-3). Briefly, 50 nM Avi-tagged targets were immobilized on the prepared NAV-coated and blocked with 0.5% BSA in PBS 96-well ELISA plates. The target coated plates were washed with appropriate buffer (TBST or PBST) and were incubated with 200 nM Fab for 20 minutes and then washed. The washed plates were incubated with protein L conjugated with HRP (1:5000 diluted in TBST) for 30 minutes. Plates were washed and the reaction was developed using the TMB chromogenic substrate (Thermofisher) and subsequently quenched with 1M HCl. Absorbance was read at 450 nm on Epoch plate reader.

Bor-N = target: T2, Bor-N (Biotinylated Avi tag, held on neutravidin; not in the letters); assay: as above
T2 construct: also called Bor N: 20-88; Borealin N-terminal domain; not shown: Avi tag, and any purification tag or linker
T2 chain: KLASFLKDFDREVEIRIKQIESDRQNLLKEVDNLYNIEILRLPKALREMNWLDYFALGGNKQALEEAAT
Experimental: as §1

[1] = target: T3, cell surface survivin on cancer cells (human, UniProt O15392 1-142); assay: flow cytometry of live cells, 200 nM Fab, anti-human F(ab')2-A647 secondary
T3 construct: whole, on cells
Experimental: Human or murine tumor cells were trypsinized, washed and resuspended in Flow buffer (1×PBS supplemented with 2% FBS) and added to a 96-well plate (#3799, Costar). 200 nM primary CPC Fab was mixed with 0.5M cells and incubated at 37 C for 20 min. […] Samples were analyzed by flow cytometry using CytoFLEX (Beckman Coulter) and mean fluorescence intensity (MFI) data was extracted using the FlowJo software (FIG. 5A-E, FIG. 6). Human peripheral blood mononuclear cells (PBMCs) derived from a single patient were used as a source of healthy human cells. PBMCs were counted, split and spun down 400×g 5 min. Cells were resuspended in Flow buffer (1×PBS supplemented with 2% FBS) and pre-incubated with TruStain FcX (1:20, Biolegend 422302) for 10 min at 37 C, followed by 200 nM primary Fab incubation at 37 for 20 min. […] Mean fluorescence intensity (MFI) data was extracted using the FlowJo software (FIG. 5F).

T3 sequence (O15392 whole entry): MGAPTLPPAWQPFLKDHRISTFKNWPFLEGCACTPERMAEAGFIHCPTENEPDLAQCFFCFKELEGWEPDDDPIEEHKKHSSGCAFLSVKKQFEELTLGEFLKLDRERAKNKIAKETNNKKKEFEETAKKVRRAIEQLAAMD

B1: SUR-N-45 Fab (Fab, V domains shown)
VH: EVQLVESGGGLVQPGGSLRLSCAASGFNLSSSSIHWVRQAPGKGLEWVASISSYSGYTYYADSVKGRFTISADTSKNTAYLQMNSLRAEDTAVYYCARPHWNSSYFSGWAMDYWGQGTLVTVSS
VL: DIQMTQSPSSLSASVGDRVTITCRASQSVSSAVAWYQQKPGKAPKLLIYSASSLYSGVPSRFSGSRSGTDFTLTISSLQPEDFATYYCQQWSSKSPITFGQGTKVEIKR
binding result (Bor-C): no binding (tested: 200 nM)
binding result (Bor-N): no binding (tested: 200 nM)
binding result [1]: binds
